Patent publication US11912781B2, “Humanized complement 5A receptor 1 antibodies and methods of use thereof” (VISTERRA, INC., priority 2021, dated 2024)

Experiments:
[1] = test system: squirrel monkeys; test: C5a-induced neutropenia in squirrel monkeys; type: in vivo, squirrel monkey; settings: antibody 10 mg/kg or avacopan 30 mg/kg IV 1 h before 0.1 mg/kg human C5a, 1 min post-C5a
Protocol: Briefly, three groups of squirrel monkeys were evaluated for inhibition of neutropenia. In the first group, 8 squirrel monkeys were injected with PBS (vehicle), intravenously. In the second group 8 squirrel monkeys were injected with exemplary antibodies at a dose of 10 mg/kg, intravenously. In the third group, group 8 squirrel monkeys were injected with avacopan at a dose of 30 mg/kg, intravenously. One hour after injection of the PBS, exemplary antibodies or avacopan, 0.1 mg/kg of human C5a was injected into the squirrel monkeys. The blood was collected after 1 min, 5 min 15 min, 2 hr and 6 hr after injection of human C5a. The percent change in neutrophils and average change in neutrophils were calculated in all three groups and are shown in FIG. 14B, as scatter plot.

[2] = target: T1, C5aR1 (Homo sapiens, UniProt P21730); test: β-arrestin2 recruitment, two-subunit luciferase reporter; type: cell-based; set-up: expressed in transfected cells
T1 sequence (P21730 1-350): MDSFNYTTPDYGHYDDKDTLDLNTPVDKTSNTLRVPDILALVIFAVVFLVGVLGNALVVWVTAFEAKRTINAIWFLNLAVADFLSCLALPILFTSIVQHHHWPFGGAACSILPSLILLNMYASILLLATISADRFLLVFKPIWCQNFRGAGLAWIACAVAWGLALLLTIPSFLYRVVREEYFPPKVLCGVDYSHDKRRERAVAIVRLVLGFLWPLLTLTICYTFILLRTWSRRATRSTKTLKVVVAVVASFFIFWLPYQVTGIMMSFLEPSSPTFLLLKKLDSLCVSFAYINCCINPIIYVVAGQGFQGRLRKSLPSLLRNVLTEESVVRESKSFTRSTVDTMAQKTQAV
Text: The β-arrestin assay utilized a proprietary two-subunit luciferase reporter system: one subunit is fused to C5aR1 and one subunit is fused to β-arrestin2. When in close proximity, the two subunits formed an enzyme that generates a luminescent signal, used as a proxy for C5aR1-mediated recruitment of β-arrestin2.
The experimental details of this determining β-arrestin recruitment are described in Example 6. […] Table 14 summarizes the […] of inhibition of β-arrestin recruitment.

[3] = test system: CD11b; test: Inhibition of CD11b expression in neutrophils; type: cell-based, human; settings: range of C5a concentrations
Text: CD11b, an integrin receptor, is mobilized to the surface of neutrophils in response to C5a activation and mediates intravascular crawling prior to neutrophil transmigration. CD11 is involved in numerous adhesion-related associations between cells such as monocytes, macrophages, natural killer (NK) cells, and granulocytes.
The experimental details of this determining CD11 expression are described in Example 5.

[4] = target: T1, C5aR1; test: GeneBLAzer assay, inhibition of Gα signaling; type: cell-based
Protocol: The GeneBLAzer assay kit and C5aR1 cell line were commercially available from Thermo Fisher (Catalog #K1544). The assay was performed as recommend by the manufacturer. Briefly, antibodies or antagonists were incubated for 30 minutes at increasing concentrations at 37° C. C5a was then added to the cells and incubated at 37° C. for an additional 4-5 hours. Beta-lactamase substrate was then added and incubated for 2 hours at room temperature. Fluorescent measurements for each well with an excitation/emission of 409/460 (blue) and 409/530 (green) were measured. An increase in the blue to green ratio was proportional to C5aR1 activation and was used to calculate the percent of activation for the cells in each well. The C5aR1 activation profile was monitored under increasing antagonist concentration. The IC50 was determined by plotting the percentage of signal against concentration of the antagonist.
This experiment was done as detailed in Example 2.

[5] = test system: tMCAO mice; test: tMCAO stroke mouse model, infarct volume; type: in vivo; settings: antibodies 20 mg/kg, PMX53 1 mg/kg
Protocol: 1 mg/kg PMX53 was used as a control. The brain was resected, cut into slices and stained with TTC. The stained cross sections were analyzed by imaging.

[6] = test system: U937-C5aR1 cells; test: Binding to U937-C5aR1 cells; settings: two antibody preparations
[7] = test system: human neutrophils; test: Binding to human neutrophils; settings: two antibody preparations
[8] = Pharmacokinetics in Tg32 mice; type: in vivo, mouse; settings: 5 mg/kg IV
Protocol: (§1) 5 mg/kg of exemplary monospecific and biparatopic antibodies were injected intravenously into Tg32 mice. The amount of the antibody in the serum was evaluated over a period of 500 hours. […] FIG. 16B-16D show the stability of the anti-C5aR1 antibodies in the serum of 5 different mice for 500 hours. […] The tetravalent antibodies have slightly lower persistence in serum as compared to the monospecific antibody. Motavizumab was used as a control.
Tg32 mice are a transgenic model in which human FcRn replaces native mouse FcRn. FcRn is necessary for the bidirectional transport of Abs across cellular barriers, influencing PK. Tg32 mice with human FcRn have been extensively studied and thought to correlate with PK in humans. The goal of this experiment was to assess FcRn-mediated recycling of IgG-scFv vs IgG formats and assess any impact of introducing Fc domain modifications on FcRn mediated recycling.
5 mg/kg of exemplary monospecific and biparatopic antibodies were injected intravenously into Tg32 mice. The percentage of antibody in the serum was determined using art-recognized assays. MVZ-IgG4-VFc17, a motavizumab antibody with IgG4 Fc and same Fc modifications as the C5aR1 antibodies, was used as a control. Further PK/PD analyses were carried out using CERTARA.

[9] = Pharmacokinetics in human C5aR1 knock-in mice; type: in vivo, mouse; settings: hC5aR1 mice, 20 mg/kg
Protocol: as §1
Target-Mediated Drug Disposition (TMDD) is evident for both exemplary C5aR1 antibodies with modified Fc domains. TMDD is the phenomenon in which a drug binds with high affinity to its pharmacological target site (such as a receptor) to such an extent that this affects its pharmacokinetic (PK) characteristics. The target binding and subsequent elimination of the drug-target complexes could affect both drug distribution and elimination, and result in nonlinearity of PK in a dose-dependent manner.
The target binding and subsequent elimination of the drug-target complexes could affect both drug distribution and elimination, and result in nonlinearity of PK in a dose-dependent manner. FIG. 30A-30F show antibody persistence was dose-dependent. […] FIG. 30F is in silico graphical representation of isotype control antibody over a period of 500 hours at a concentration of 20 mg/Kg. Non-naïve mice were administered multiple dosing of the mAbs once weekly over 4 total weeks.

[10] = target: T1, C5aR1; test: Binding kinetics and internalization with or without sodium azide; settings: with or without 20 mM sodium azide
Protocol: The Example seeks to verify that the internalization of the C5aR1 antibodies is specific and not due to non-specific clustering of the membrane immunoglobulin. Sodium azide is a metabolic inhibitor, and inhibits internalization or endocytosis as these are energy dependent processes. Any metabolic dependency on the internalization of exemplary C5aR1 antibodies were probed using 10 nM C5aR1 antibodies in the presence or absence of 20 mM sodium azide.

Q: Which “average reduction in neutrophil counts from baseline” value [1] does the source give for `Cc1ccc(NC(=O)[C@H]2CCCN(C(=O)c3c(C)cccc3F)[C@H]2c2ccc(NC3CCCC3)cc2)cc1C(F)(F)F` [Avacopan] here?
A: 59%

Q: What about the IC50 ([2]; 10 nM C5a, Table 9, read-out: IC50 for β-arrestin signaling) of the same molecule?
A: 9.95 nM

Q: What about the IC50 ([2]; 100 nM C5a, Table 9, read-out: IC50 for β-arrestin signaling) of the same molecule?
A: 3.25 nM

Q: What about the “potency in β-arrestin2 recruitment as C5a increases” value ([2]; C5a concentrations increase to 10 nM) of the same molecule?
A: lost potency

Q: And the IC50 ([2]; read-out: IC50 (nM) at 100 nM C5a, beta-arrestin inhibition, 100 nM C5a, Table 14)?
A: 34 nM

Q: What about the “inhibition of CD11b expression” value [3] of the same molecule?
A: only partially potent

Q: What about the IC50 ([4]; read-out: IC50 (nM) 10 nM C5a, Gα signaling, 10 nM C5a, Table 13) of the same molecule?
A: 2.2 nM

Q: What about the IC50 ([4]; read-out: IC50 (nM) 100 nM C5a, Gα signaling, extrapolated data, 100 nM C5a, Table 13, extrapolated) of the same molecule?
A: 0.7 nM

Q: For PMX53 [reference compound], which “infarct volume compared to the vehicle group” value [5] is on record?
A: only slightly reduced infarct volume

Q: With motavizumab [reference compound] as the molecule, how does the “EC50 of U937-C5aR1 binding” value [6] read?
A: No Binding

Q: And the “EC50 of human neutrophil binding” value [7]?
A: No Binding

B1: Isotype CTL: a motavizumab antibody with IgG4 Fc and same Fc modifications as the C5aR1 antibodies, used as a control (antibody, chains of the INN, looked up, V domains shown)
VH: QVTLRESGPALVKPTQTLTLTCTFSGFSLSTAGMSVGWIRQPPGKALEWLADIWWDDKKHYNPSLKDRLTISKDTSKNQVVLKVTNMDPADTATYYCARDMIFNFYFDVWGQGTTVTVSS
VL: DIQMTQSPSTLSASVGDRVTITCSASSRVGYMHWYQQKPGKAPKLLIYDTSKLASGVPSRFSGSGSGTEFTLTISSLQPDDFATYYCFQGSGYPFTFGGGTKVEIK
modifications: IgG4 Fc modifications
notes: a motavizumab antibody with IgG4 Fc and same Fc modifications as the C5aR1 antibodies, used as a control
Q: With B1 as the molecule, how does the AUC0-24 ([8]; GeoMean) read?
A: 1620 µg·h/mL

Q: And the AUCinf ([8]; GeoMean)?
A: 16900 µg·h/mL

Q: And the AUClast ([8]; GeoMean)?
A: 13100 µg·h/mL

Q: What about the CL ([8]; GeoMean) of the same molecule?
A: 7.08 mL/day/kg

Q: What about the Cmax ([8]; GeoMean) of the same molecule?
A: 131 µg/mL

Q: What about the V ([8]; GeoMean) of the same molecule?
A: 0.104 L/kg

Q: What about the t1/2 ([8]; Median) of the same molecule?
A: 259 h

Q: What about the tlast ([8]; Median) of the same molecule?
A: 504 h

Q: What about the AUC0-24 ([9]; GeoMean) of the same molecule?
A: 7130 µg·h/mL

Q: And the AUCinf ([9]; GeoMean)?
A: 66200 µg·h/mL

Q: And the AUClast ([9]; GeoMean)?
A: 55800 µg·h/mL

Q: What about the CL ([9]; GeoMean) of the same molecule?
A: 7.25 mL/day/kg

Q: And the Cmax ([9]; GeoMean)?
A: 453 µg/mL

Q: What about the V ([9]; GeoMean) of the same molecule?
A: 0.06 L/kg

Q: And the t1/2 ([9]; Median)?
A: 127 h

Q: And the tlast ([9]; Median)?
A: 504 h

B2: c2139-e1711: biparatopic anti-C5aR1 antibody, VH1 SEQ ID NO: 14, VL1 SEQ ID NO: 25, VH2 SEQ ID NO: 16, VL2 SEQ ID NO: 17 (antibody, V domains shown)
VH 1: QVQLVQSGAEVKKPGASVKVSCKASGYTFTNYWMHWVRQAPGQGLEWMGYLNPSSGYTKYAQKFQGRVTMTRDTSTSTVYMELSSLRSEDTAVYYCTRSGGDNYGNPYYFDRWGQGTTVTVSS
VL 1: DVQMTQSPSSLSASVGDRVTITCRASQSIVHSNGNTYLHWYQQKPGKAPKFLIYKVSNRFSGVPSRFSGSGSGTDFTLTISSLQPEDFATYYCAQYTLVPLTFGQGTKLEIK
VH 2: EVQLVESGGGLIQPGGSLRLSCAASGFTFNAYAMSWVRQAPGKCLEWVSSISTGGNTYYADSVKGRFTISRDNSKNTLYLQMNSLRAEDTAVYYCTRGYQRFSGFAYWGQGTLVTVSS
VL 2: EIVLTQSPATLSLSPGERATLSCRSSQSLVHSNGNTYLNWYQQKPGQAPRLLIYKVSNRLSGIPARFSGSGSGTDFTLTISSLEPEDFAVYYCSQSTHVPYTFGCGTKLEIK
Q: Which internalization [10] does the source give for B2 here?
A: undergoes internalization during association
